Biological target: biotinylated IRF3-Flag (UniProt Q14653)
Test: BLI; Forte-Bio Octet Red; 10 ug/ml biotinylated IRF3-Flag coupled to biosensors, immersed in ICP27-Flag (50, 200, 500 or 800 nM); proteins in PBS

Chain of UniProt Q14653 (Q14653 whole entry): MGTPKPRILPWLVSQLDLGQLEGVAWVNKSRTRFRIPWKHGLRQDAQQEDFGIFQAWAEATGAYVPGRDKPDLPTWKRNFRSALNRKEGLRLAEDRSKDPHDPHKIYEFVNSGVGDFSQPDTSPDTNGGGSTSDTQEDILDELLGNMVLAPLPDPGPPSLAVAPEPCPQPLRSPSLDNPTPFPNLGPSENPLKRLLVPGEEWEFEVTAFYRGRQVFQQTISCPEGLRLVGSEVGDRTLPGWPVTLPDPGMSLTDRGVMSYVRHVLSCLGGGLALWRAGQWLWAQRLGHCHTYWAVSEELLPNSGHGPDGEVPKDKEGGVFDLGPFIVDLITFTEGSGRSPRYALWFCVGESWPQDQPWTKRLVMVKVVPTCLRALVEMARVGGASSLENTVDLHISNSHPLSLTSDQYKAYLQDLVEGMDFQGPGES

ICP27-Flag (purified from HEK 293F) (from UniProt P28276 1-512) (natural protein)
Kd: 20.3 nM

Source: PMC6399465
